According to US20110070235A1:
Numbering of substitutions follows the chain as printed. Where “and” joins values, the source holds several entries; their conditions need not be identical. Identical values can stand only once.

B1: 3244_H04 (antibody, V domains shown)
VH: EVQLVESGGGLVQPGGSLRLSCTASGLSVSSTYMNWVRQAPGKGLEWVSVFYSETRTYYADSVKGRFTVSRHNSNNTLYLQMNSLRAEDTAVYYCARVQRLSYGMDVWGQGTTVTVSS
VL: DIQMTQSPSSLSASVGDRVTITCRASQSISTYLNWYQKRPGKAPKLLVYGASSLQSGVPSRFSGSGSGTDFTLTIASLQPEDSAVYYCQQTYSIPLFGQGTRLEIK
B2: 3245_O19 (antibody, V domains shown)
VH: B1 VH with A87V
VL: B1 VL with S53T, V85T
B3: 3248_P18 (antibody, V domains shown)
VH: QVQLQESGPGLVKPSETLSLTCTVSGGSISAYHWSWIRQPPGKGLEWIGHIFDSGSTYYNPSLKSRVTISLDASKNQLSLRLTSVTASDTAIYYCARPLGSRYYYGMDVWGQGTTVTVSS
VL: DIQMTQSPSSLSASVGDRVTITCRASQSISRYLNWYQQKPGKAPKLLIYGASTLQNGAPSRFSGSGSGTDFTLTISSLQPEDSATYLCQQSYSVPAFGGGTKVEVK
B4: 3136_G05 (antibody, V domains shown)
VH: QVQLQESGPGLVKPSETLSLTCSVSGGSISSDFWSWIRQPPGKGLEWIGYVYNRGSTKYSPSLKSRVTISADMSKNQFSLNMSSVTAADTAVYYCAKNGRSSTSWGIDVWGKGTTVTVSS
VL: DIQMTQSPSSLSASVGDRLTITCRASQSISTYLHWYQQKPGKAPKLLIYAASSLQSGVPSRFSGSRSGTDFTLTISSLQPDDFATYYCQQSYSPPLTFGPGTKVDMK
B5: 3259_J21 (antibody, V domains shown)
VH: QVQLQESGPRVVRPSETLSLTCTVSGGSISSYNWIWIRQPPGKGLEWIGHIYDYGRTFYNSSLQSRPTISVDASKNQLSLRLTSVTASDTAVYYCARPLGILHYYAMDLWGQGTTVTVSS
VL: DIQMTQSPLSVSVSVGDRVTIACRASQSIDKFLNWYQQKPGKAPKLLIYGASNLHSGAPSRFSASGSGTDFTLTITNIQTEDFATYLCQQSFSVPAFGGGTKVEIK
B6: 3260_D19 (antibody, V domains shown)
VH: DMQLVESGGGLVPPGGSLRLSCAASGFSVSDNYINWVRQAPGKGLDWVSVFYSADRTSYADSVKGRFTVSSHDSKNTVYLQMNSLRAEDTAVYYCARVQKSYYGMDVWGQGTTVTVSS
VL: GIQMTQSPSSLSASVGDRVTITCRASQSISRYLNWYLQKPGKAPKLLISGASSLQSGVPSRFSGTGSGTEFTLTISSLQPEDFATYYCQQTFSIPLFGQGTKVEIK
B7: 3242_P05 (antibody, V domains shown)
VH: B6 VH
VL: B6 VL
B8: 3139_P23 (antibody, V domains shown)
VH: QVQLQESGPRLVKPSESLSLTCTVSGGSISNSFWGWIRQPPGEGLEWIGYVYNSGNTKYNPSLKSRVTISRDTSKSQLYMKLRSVTAADTAVYYCARHDDASHGYSISWGHGTLVTVSS
VL: DIQMTQSPSSLSASVGDRVTITCRASQTISTYLNWYQQKSGKAPKLLIYAASGLQSGVPSRFSGSGSGTDFTLTISSLQPEDFATYFCQQSYNTPLTFGQGTKVEIK
B9: 3241_G23 (antibody, V domains shown)
VH: QVQLQQSGPGLVKPSQTLSLTCTVSGGPVSGGGYSWNWIRQRPGQGLEWVGFMFHSGSPRYNPTLKSRITISVDTSKNLVSLKLSSVTAADTAVYFCARVGQMDKYYAMDVWGQGTTVTVSS
VL: DIQMTQSPSSLSSSVGDRVTITCRASQSIGAYVNWYQQKAGKAPQVLIFGASNLQSGVPSRFSGSGSGTDFTLTISSLQPEDFATYFCQQTYSTPITFGQGTRLEIK
B10: 3253_P10 (antibody, V domains shown)
VH: QVQLQESGPGLLKPSDTLALTCTVSGGSITSDYWSWIRQPPGRGLDWIGFFYNGGSTKYNPSLKSRVTISADTSKNQLSLKLTSVTAADTGVYYCARHDAKFSGSYYVASWGQGTRVTVSS
VL: DIQMTQSPSSLSASVGDRVTISCRASQSISTYLNWYQQQPGKAPKVLISGATDLQSGVPSRFSGSGSGTDFTLTISSLQPEDFATYYCQQSYNTPLIFGQGTKLEIK
B11: 3243_J07 (antibody, V domains shown)
VH: B10 VH with A100V
VL: B10 VL with D53N
B12: 3244_I10 (antibody, V domains shown)
VH: B10 VH
VL: B10 VL with S49F, D53N
B13: TCN-032 (8I10) (antibody, V domains shown)
VH: QVQLQESGPGLVKPSETLSLTCTVSGSSISNYYWSWIRQSPGKGLEWIGFIYYGGNTKYNPSLKSRVTISQDTSKSQVSLTMSSVTAAESAVYFCARASCSGGYCILDYWGQGTLVTVS
VL: DIQMTQSPSSLSASVGDRVTITCRASQNIYKYLNWYQQRPGKAPKGLISAASGLQSGVPSRFSGSGSGTDFTLTITSLQPEDFATYYCQQSYSPPLTFGGGTRVEIK
B14: 3252_C13 (antibody, V domains shown)
VH: QVQLQESGPGLVKPSETLSLTCTVSGASISSDYWSWIRLPPGKGLEWIGYIYNRGSTKYTPSLKSRVTISLDTAENQFSLRLRSVTAADTAIYYCARHVGGHTYGIDYWGQGTLVTVSS
VL: DIQMTQSPSSLSASVGDRVTITCRASQSISNYLNWYQHKPGEAPKLLNYAASSLQSGVPSRFSASGSGTDFTLTISSLQPEDFATYYCQQSYNTPITFGQGTRLEIK
B15: 3255_J06 (antibody, V domains shown)
VH: B14 VH with I92V
VL: B14 VL with T74S, S77G, Q100P
B16: 3362_B11 (antibody, V domains shown)
VH: QVQLQASGPGLVKPSETLSLTCTVSGDSITSGAYYWTWIRQHPGKGLEWIGYIYYSGNTYYNPSLKSRVTISLDTSKNQFSLKVNSVTAADTAVYYCARAASTSVLGYGMDVWGQGTTVTVSS
VL: B14 VL with N31R, H38Q, K39E, E42K, N48V, A64G, N93S, I96L
B17: 3420_I23 (antibody, V domains shown)
VH: QVQLQESGPGLVKPSETLSVTCKVSGDSISSYSWSWIRQPPGKGLEWVGYLYYSGSTKYNPSLKSRTTISVDTSTNQLSLKLSFVTAADTAVYFCARTGSESTTGYGMDVWGQGTTVTVSS
VL: B14 VL with N31T, H38Q, E42K, N48I, Q55H, A64G, T72A, N93S, T94P

These molecules were tested against M2 protein of A/Hong Kong/483/1997, expressed on cells (Influenza A virus A/Hong Kong/483/1997 (H5N1)) (assay: not given).
B1 showed an FACS M2-HK MFI of 963 MFI.
With B2 the FACS M2-HK MFI was 919 MFI.
B3 was tested, and the FACS M2-HK MFI was 967 MFI.
For B4, the FACS M2-HK MFI was 109 MFI.
For B5, the FACS M2-HK MFI was 1670 MFI.
With B6 the FACS M2-HK MFI was 846 MFI.
B7 was tested, and the FACS M2-HK MFI was 596 MFI.
With B8 the FACS M2-HK MFI was 110 MFI.
With B9 the FACS M2-HK MFI was 1700 MFI.
B10 gave an FACS M2-HK MFI of 43 MFI.
With B11 the FACS M2-HK MFI was 131 MFI.
With B12 the FACS M2-HK MFI was 434 MFI.
For B13, the FACS M2-HK MFI was 754 MFI and 1080 MFI.
For B14, the FACS M2-HK MFI was 449 MFI.
B15 gave an FACS M2-HK MFI of 442 MFI.
Molecule B16 has an FACS M2-HK MFI of 218 MFI.
Work on B17 yielded an FACS M2-HK MFI of 112 MFI.

What follows are molecules tested against M2e (assay: peptide ELISA, mAb 5 ug/mL).
With TCN-032 (8I10) (antibody) the ELISA A450 was 0.13.
